Test results from the RNAGym collection of RNA variant scans (doi:10.7554/elife.80360).

B1: HDV Ribozyme (parent)
chain: GGCCGGCAUGGUCCCAGCCUCCUCGCUGGCGCCGGCUGGGCAACAUUCCGAGGGGACCGUCCCCUCGGUAAUGGCGAAUGGGACCCA

Variants of: B1
Test: self-cleavage, relative activity (ratio to wild type); higher = more cleavage; co-transcriptional

Variant | self-cleavage
G52A G82C | 0.362
G52A G82A | 0.439
C49U G68U | 0.817
C49U U65G | 0.939
G50A A87C | 1.07
A51G G52U | 1.02
C49A A87G | 0.839
C49A A87C | 0.95
A51G U79C | 0.354
A51C C84A | 0.675
C48U C64U | 0.997
G52A G76U | 0.983
A51U C85A | 0.956
G50A A56C | 1.25
A51C C66A | 1.09
A51C C66G | 0.864
C49U A87U | 0.939
C49U A87G | 0.959
C49A C66U | 0.979
C49G C57G | 0.997
C49G A83G | 0.378
G50C G81U | 0.263
A51U G54U | 1.02
G50U G80A | 0.486

Variant | self-cleavage
G50U G80U | 0.2
C49G G82U | 0.123
C49G G82C | 0.16
G52A C61G | 0.897
C48U C85U | 1.14
G50C G74A | 0.471
G50C G74U | 0.292
G52A A87G | 0.86
G50A U69G | 0.76
G50U G53U | 0.735
A51G U72G | 0.615
A51G U72C | 0.864
G50U A83G | 0.818
G50A G55C | 0.81
A51G A71G | 0.752
A51G G53A | 0.831
G52A U79A | 0.95
G52A U79G | 0.718
C49G U60G | 0.762
C49G U60A | 0.923
C49G U60C | 0.831
G50C C64A | 0.389
C49A C63A | 0.597
C49G C66U | 0.646

Variant | self-cleavage
G50U U65G | 0.945
C49A C85G | 0.762
A51C C61U | 0.914
G50U G73C | 0.268
G52C C66A | 1.03
G50C G80A | 0.523
G50C C57G | 1.12
G50C C57U | 1.04
C49U G74A | 0.443
C49U G74C | 0.374
C49G C58A | 0.764
A51G C57G | 0.916
G50C U60A | 1.03
G50C U60G | 1.03
A51C G81A | 0.323
G50C C58U | 1.04
G50C C58G | 0.796
C49U G81U | 0.314
C49G G50C | 0.587
C49G G50A | 0.793
G52A C64A | 0.786
G52A G55U | 0.934
C48U G52C | 0.847
A51U C57G | 1.04

Variant | self-cleavage
G50U C86G | 0.811
G52A A77U | 0.694
G52A G73U | 0.338
G50A C86G | 0.884
A51U G67C | 0.78
A51C G80U | 0.199
C49A G68U | 0.817
C49A G68C | 0.849
G52A A78G | 0.604
C49A U69G | 1.33
G50U G76C | 1.19
G52A U60C | 1.08
G50U C66G | 0.787
A51U G55A | 1.17
A51U G55C | 1.01
A51C U60A | 1.11
G52A C63A | 0.774
G52A G53U | 0.773
G50C C66U | 0.954
G50C C66A | 0.812
C49A G67C | 1.04
G52A U69G | 0.955
A51U G59A | 0.889
A51U G59C | 0.755

Variant | self-cleavage
A51U G59U | 1.02
C49U G80C | 0.143
C49U G80U | 0.219
G50A G74A | 0.411
G50A G74C | 0.242
A51U A87U | 1.03
G50A G59C | 1.31
C49U C63A | 1
C49U C63G | 0.396
G50C A78U | 0.131
A51U C58G | 0.997
A51U C58A | 1.04
A51C G76C | 0.982
G50A G82C | 0.409
C48U G55U | 1.11
C49G C61G | 0.618
A51U G80C | 0.208
A51U C63G | 0.208
C49G A51G | 0.688
C49G A51C | 0.623
C49A G82A | 0.104
G52C A70U | 0.782
A51G G82U | 0.203
A51G G82C | 0.322

Variant | self-cleavage
A51G G82A | 0.125
C49G C62G | 0.133
C49U G50U | 0.941
C49U C64A | 0.739
C49A G55U | 1.18
C49A G55A | 0.816
C49A A70G | 0.689
C49A C84A | 1.05
A51C A56U | 1.05
G52A C66A | 1.09
A51C A77G | 0.643
A51C A77U | 0.429
C48U C49U | 0.85
A51U A77G | 0.615
G50C G54U | 0.374
A51C C57G | 1.14
C49G G68C | 0.458
C49G G68A | 0.789
G50U U79C | 0.507
A51C C62A | 0.623
C49G G55A | 0.976
G50A C85G | 0.878
G50U G68U | 0.576
A51C A83C | 0.571

Variant | self-cleavage
G52A C57U | 1.06
G52A C57G | 1.01
C49G U72C | 0.332
G50A U72G | 0.582
G50C G59A | 0.992
G52A C58A | 1.14
G52C C62A | 0.878
G50C A51C | 0.814
G50A C61U | 0.649
G52C C84A | 0.791
A51G G55U | 1.06
A51G G76C | 0.831
A51G G76A | 0.91
C49A A51G | 0.748
C49A A51C | 0.297
G50U C84G | 0.724
G50U C84A | 0.974
C49U C66U | 0.899
G52C C85U | 1.09
A51U A56U | 1.25
A51C U72G | 0.529
A51C U72A | 0.609
C49U A83U | 0.391
A51U A70C | 0.886

Variant | self-cleavage
A51U A70G | 0.972
A51U A70U | 0.849
G50A G80U | 0.233
G50C U72A | 0.789
G50A C62G | 0.219
G50A C62A | 0.694
C49A A71C | 0.643
C49A A83U | 0.719
C49U G73A | 0.716
C49U G73C | 0.409
G50C C84G | 0.542
A51C C75U | 0.141
A51C C86A | 0.872
A51C C86G | 0.712
A51C C86U | 1.01
A51G U65G | 0.682
A51G U65A | 0.7
A51G C85U | 0.743
A51G C85G | 0.984
C49A C57G | 0.898
C48U G59C | 1.23
A51C A71C | 0.692
C49A C64G | 0.356
G50C A56C | 0.978

Variant | self-cleavage
C48U G54C | 1.2
C48U G54U | 1.02
C48U C84U | 0.742
C48U C84A | 0.958
C49U C62U | 1.17
G50A C84A | 0.95
G50A C84G | 0.853
C48U G74C | 0.253
G50A A71U | 0.881
G50A A71G | 0.991
A51G G59U | 1.1
A51G G59C | 0.895
A51G C86U | 1.13
G50A A83C | 0.525
C48U G73C | 0.422
G50C A71G | 1.01
G52C G54C | 0.564
G50A G67C | 0.869
G50A G67U | 1.06
G50A G67A | 1.17
G52A C84A | 0.736
G50U A51U | 1.05
G50U A78U | 0.229
A51U C84A | 0.916

Variant | self-cleavage
A51G U60G | 0.867
G50U A77U | 0.62
G50C U65A | 0.919
C49G C63A | 0.489
C49A C75A | 0.156
G50C G55C | 1.14
C48U G81U | 0.327
C49A A78G | 0.665
C49A A56G | 1.11
C49U C84G | 0.364
A51U U72C | 0.608
A51U U72A | 0.628
C49U U79A | 0.811
G52A A70G | 1.02
G52A A56U | 1.1
C49U C61U | 0.851
G50U G82A | 0.499
A51G C64U | 0.892
A51G C64G | 0.902
A51C A78U | 0.133
A51C G59A | 0.92
G50C A77U | 0.554
G50C A77G | 0.665
A51C G53U | 0.69

Variant | self-cleavage
A51C G53A | 0.491
C49A G74A | 0.288
A51U U60G | 1.04
A51U U60C | 0.594
G52C C86U | 1.2
G52C C86A | 0.997
G50A A77U | 0.721
A51C G82U | 0.386
A51U A71C | 0.856
A51G C61A | 0.954
A51G C61G | 0.964
C49A C86G | 0.906
G52C C61U | 0.963
G50A G52A | 0.888
A51U U69C | 1.26
C49U A78U | 0.437
C49G C84U | 0.429
A51C A70C | 1.03
C49G C75A | 0.185
G52A C62U | 1.12
G52A C62A | 0.732
A51C A87G | 0.862
C49G | 0.905
C49U | 0.96

Variant | self-cleavage
C49A | 0.965
G52C A87G | 0.985
C48U G76U | 1.15
C48U G76A | 1.08
C48U U65A | 0.876
G52C G53U | 0.782
G52A G68C | 0.436
G52A G68U | 0.591
C49U G54A | 1.02
C48U G53U | 0.923
A51U G82A | 0.543
A51U G82U | 0.373
G52A G67U | 0.843
A51G G81U | 0.356
A51U G74C | 0.243
A51U G74U | 0.369
G52C C75U | 0.134
C49G G81U | 0.205
C49G G81A | 0.361
C48U G50A | 0.888
C49G G73C | 0.136
C49G G73A | 0.197
C49A G80A | 0.479
A51U A78U | 0.282

Variant | self-cleavage
C49A G73A | 0.314
C49G G76A | 1.1
C49U U60G | 0.939
C49U U60A | 0.718
C49U U60C | 1.04
A51G G74C | 0.148
G50U C85A | 0.742
G50U G59U | 0.939
C49U G82U | 0.47
C49U G82C | 0.264
G50A A78U | 0.4
C49G G67C | 1.22
C49A G81U | 0.26
G50C | 0.963
G50A | 0.98
G50U | 0.989
C49U G76C | 0.867
C49A C61A | 0.759
C49A C61U | 0.789
G50A G73U | 0.369
G50A G73A | 0.623
G50A G73C | 0.436
C49G G59A | 1.11
G50U A70U | 0.946

Variant | self-cleavage
G50U G55U | 0.906
G50U G55C | 1.03
G50A C57G | 0.886
C49U G55C | 0.906
G52C C58G | 1.13
A51U G81A | 0.601
C49A U79A | 1.05
G52A A83C | 0.374
G50U A87C | 0.935
A51U G76C | 1.23
A51U G76A | 0.961
A51U G76U | 1.11
G52A G81C | 0.259
G52A G54C | 0.842
C49U C58U | 0.991
G50A G54C | 0.628
C49G G74C | 0.192
C49G G74U | 0.219
G50A U60A | 0.776
C49G G54C | 0.762
C49G G54A | 0.332
A51U C66A | 0.764
